Values quoted from earlier work in article PMC7481795.
Like-named read-outs stand apart in the source and are kept apart here.

Columns and labels:
[1] = target: β-glucuronidase (Homo sapiens) (UniProt P08236)
[2] = target: β-glucuronidase (Homo sapiens) (UniProt P08236); remark: listed apart in the source

Chain of β-glucuronidase (Homo sapiens) (P08236 23-651): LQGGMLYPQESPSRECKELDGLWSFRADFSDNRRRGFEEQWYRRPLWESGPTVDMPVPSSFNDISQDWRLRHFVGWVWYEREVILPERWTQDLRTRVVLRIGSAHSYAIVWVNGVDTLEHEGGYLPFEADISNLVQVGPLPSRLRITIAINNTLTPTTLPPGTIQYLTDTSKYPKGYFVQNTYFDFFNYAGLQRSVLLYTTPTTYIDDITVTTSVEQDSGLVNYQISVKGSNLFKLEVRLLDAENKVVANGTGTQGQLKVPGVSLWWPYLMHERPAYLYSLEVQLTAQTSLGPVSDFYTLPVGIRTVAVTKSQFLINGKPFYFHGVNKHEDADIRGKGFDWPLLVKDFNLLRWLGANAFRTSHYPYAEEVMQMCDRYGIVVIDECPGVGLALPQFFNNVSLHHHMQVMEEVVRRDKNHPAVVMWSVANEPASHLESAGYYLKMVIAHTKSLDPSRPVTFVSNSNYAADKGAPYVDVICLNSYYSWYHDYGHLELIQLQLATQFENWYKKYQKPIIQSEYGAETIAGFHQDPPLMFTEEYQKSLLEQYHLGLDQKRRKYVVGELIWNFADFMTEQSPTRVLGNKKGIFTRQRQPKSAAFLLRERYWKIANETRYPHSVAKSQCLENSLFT
Chain of cation-independent mannose 6-phosphate receptor domain 3 (P08169 332-477): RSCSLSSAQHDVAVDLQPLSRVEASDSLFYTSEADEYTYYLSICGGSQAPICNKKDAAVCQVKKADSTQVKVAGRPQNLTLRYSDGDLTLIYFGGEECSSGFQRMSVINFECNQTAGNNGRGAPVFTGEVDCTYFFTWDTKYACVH
Chain of cation-independent mannose 6-phosphate receptor domains 1-3 (P08169 45-477): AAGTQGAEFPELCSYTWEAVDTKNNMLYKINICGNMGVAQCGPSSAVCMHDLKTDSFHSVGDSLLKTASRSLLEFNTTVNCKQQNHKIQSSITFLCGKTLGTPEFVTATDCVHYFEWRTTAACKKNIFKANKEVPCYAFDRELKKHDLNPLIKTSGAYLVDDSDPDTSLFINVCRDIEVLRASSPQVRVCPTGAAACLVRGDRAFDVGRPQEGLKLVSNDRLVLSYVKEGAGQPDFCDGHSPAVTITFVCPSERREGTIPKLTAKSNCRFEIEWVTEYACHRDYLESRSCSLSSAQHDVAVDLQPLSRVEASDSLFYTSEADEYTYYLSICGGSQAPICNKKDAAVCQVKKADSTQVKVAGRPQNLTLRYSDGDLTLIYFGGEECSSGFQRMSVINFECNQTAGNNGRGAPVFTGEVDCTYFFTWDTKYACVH

Substance	Kd [1]	Kd [2]
cation-independent mannose 6-phosphate receptor domains 1-3 (from UniProt P08169)	0.5 nM	–
cation-independent mannose 6-phosphate receptor domain 3 (from UniProt P08169)	–	500 nM
